Test results taken from patent publication US20230381281A1, “PHARMACEUTICAL COMPOSITION COMPRISING GLUCAGON/GLP-1/GIP TRIPLE AGONIST OR LONG-ACTING CONJUGATE THEREOF FOR PREVENTING OR TREATING LUPUS-RELATED DISEASES” (HANMI PHARM. CO., LTD., priority 2020, published 2023).
Bridge positions count the residues as written; N and C are the ends. Square brackets hold non-standard residues; d marks the D form. Ends that are not written are not given here. * marks the point of attachment. Acetyl(2-(4-imidazolyl)) = O=C(Cc1c[nH]cn1)*; Aib = CC(C)(N)C(=O)O

T1: human GIP receptor (human, UniProt P48546 22-466)
T1 sequence (looked up): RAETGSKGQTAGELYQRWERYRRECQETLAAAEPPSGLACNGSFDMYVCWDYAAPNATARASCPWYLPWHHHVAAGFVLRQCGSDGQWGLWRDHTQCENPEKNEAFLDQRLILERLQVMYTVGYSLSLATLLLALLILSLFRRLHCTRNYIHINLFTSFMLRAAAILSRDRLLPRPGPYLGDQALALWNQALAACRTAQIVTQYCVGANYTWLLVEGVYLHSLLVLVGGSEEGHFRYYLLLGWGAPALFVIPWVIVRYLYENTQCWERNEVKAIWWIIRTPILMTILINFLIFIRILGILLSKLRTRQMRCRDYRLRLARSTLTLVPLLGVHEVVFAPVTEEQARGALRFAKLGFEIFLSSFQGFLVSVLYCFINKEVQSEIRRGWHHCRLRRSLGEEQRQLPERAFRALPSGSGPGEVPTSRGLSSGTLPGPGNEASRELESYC


Each binder was assayed against T1, human GIP receptor (assay: cell-based or functional assay).

Q: Which “In vitro activity compared to native peptide (%) vs GIP” value (shortened to “In vitro activity … (%) vs GIP”) does the source give for H[Aib]QGTFTSDYSIAMDEIHQKDFVNWLLNTKC (bridge 16-20) [Triple agonist of SEQ ID NO: 35] here?
A: 1.3%

Q: How did the “In vitro activity … (%) vs GIP” value turn out when Y[Aib]QGTFTSDYSKYLDEKRAKEFVQWLLDHHCSSGQPPPS (bridge 16-20) [Triple agonist of SEQ ID NO: 43] was run?
A: 3.7%

Q: Which “In vitro activity … (%) vs GIP” value does the source give for H[Aib]QGTFTSDKSKYLDECAAQDFVQWLLDGGPSSGAPPPS [Triple agonist of SEQ ID NO: 41] here?
A: < 0.1%

Q: Which “In vitro activity … (%) vs GIP” value does the source give for H[Aib]QGTFTSDKSKYLDERACQDFVQWLLDGGPSSGAPPPS [Triple agonist of SEQ ID NO: 40] here?
A: < 0.1%

Q: With H[Aib]QGTFTSDVSSYLLGQQQKEFIAWLVKGC [Triple agonist of SEQ ID NO: 4] as the binder, how does the “In vitro activity … (%) vs GIP” value read?
A: < 0.1%

Q: H[Aib]QGTFTSDYSKYLDECRQKEFVQWLLNGGPSSGAPPPSG (bridge 16-20) [Triple agonist of SEQ ID NO: 37] was tested. Which “In vitro activity … (%) vs GIP” value did it give?
A: 2.2%

Q: H[Aib]QGTFTSDYSKYLDGQHAQCFVAWLLAGGGPSSGAPPPS [Triple agonist of SEQ ID NO: 39] was tested. Which “In vitro activity … (%) vs GIP” value did it give?
A: < 0.1%

Q: H[Aib]QGTFTSDYSKYLCEKRQKEFVQWLLNGGPSSGAPPPSG (bridge 16-20) [Triple agonist of SEQ ID NO: 36] was tested. Which “In vitro activity … (%) vs GIP” value did it give?
A: 0.2%

Q: For H[Aib]QGTFTSDVSSYLDGQAAKEFIAWLVKGC [Triple agonist of SEQ ID NO: 1], which “In vitro activity … (%) vs GIP” value is on record?
A: < 0.1%

Q: With H[Aib]QGTFTSDYSKYLDEKRQKEFVNWLLAQKC (bridge 16-20) [Triple agonist of SEQ ID NO: 34] as the binder, how does the “In vitro activity … (%) vs GIP” value read?
A: 0.6%

Q: Which “In vitro activity … (%) vs GIP” value does the source give for HGQGTFTSDCSKQLDGQAAQEFVAWLLAGGPSSGAPPPS [Triple agonist of SEQ ID NO: 44] here?
A: < 0.1%

Q: Y[Aib]QGTFTSDYSKYLDEKRAKEFVQWLLDHHPSSGQPPPSC (bridge 16-20) [Triple agonist of SEQ ID NO: 42] was tested. Which “In vitro activity … (%) vs GIP” value did it give?
A: 7.8%

These binders were tested against human GCG receptor (human, UniProt P47871 26-477) (assay: cell-based or functional assay).
Chain of human GCG receptor (P47871 26-477): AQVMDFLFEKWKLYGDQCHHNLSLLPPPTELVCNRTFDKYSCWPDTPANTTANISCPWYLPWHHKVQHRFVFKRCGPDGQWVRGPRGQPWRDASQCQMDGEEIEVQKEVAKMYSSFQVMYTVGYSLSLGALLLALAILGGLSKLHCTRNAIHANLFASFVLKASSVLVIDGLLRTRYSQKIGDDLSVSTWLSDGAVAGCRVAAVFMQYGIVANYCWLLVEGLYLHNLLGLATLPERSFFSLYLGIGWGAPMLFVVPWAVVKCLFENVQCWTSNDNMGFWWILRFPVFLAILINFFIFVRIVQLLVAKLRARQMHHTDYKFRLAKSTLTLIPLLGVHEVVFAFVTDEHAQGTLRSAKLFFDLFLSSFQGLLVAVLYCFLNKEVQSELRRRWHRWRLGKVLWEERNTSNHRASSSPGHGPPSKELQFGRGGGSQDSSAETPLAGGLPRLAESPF

Q: How did the “In vitro activity compared to native peptide (%) vs Glucagon” value (“In vitro activity … (%) vs Glucagon” below) turn out when H[Aib]QGTFTSDYSIAMDEIHQKDFVNWLLNTKC (bridge 16-20) [Triple agonist of SEQ ID NO: 35] was run?
A: < 0.1%

Q: With Y[Aib]QGTFTSDYSKYLDEKRAKEFVQWLLDHHCSSGQPPPS (bridge 16-20) [Triple agonist of SEQ ID NO: 43] as the binder, how does the “In vitro activity … (%) vs Glucagon” value read?
A: 88.4%

Q: H[Aib]QGTFTSDKSKYLDECAAQDFVQWLLDGGPSSGAPPPS [Triple agonist of SEQ ID NO: 41] was tested. Which “In vitro activity … (%) vs Glucagon” value did it give?
A: < 0.1%

Q: With H[Aib]QGTFTSDKSKYLDERACQDFVQWLLDGGPSSGAPPPS [Triple agonist of SEQ ID NO: 40] as the binder, how does the “In vitro activity … (%) vs Glucagon” value read?
A: < 0.1%

Q: With H[Aib]QGTFTSDVSSYLLGQQQKEFIAWLVKGC [Triple agonist of SEQ ID NO: 4] as the binder, how does the “In vitro activity … (%) vs Glucagon” value read?
A: < 0.1%

Q: Which “In vitro activity … (%) vs Glucagon” value does the source give for H[Aib]QGTFTSDYSKYLDECRQKEFVQWLLNGGPSSGAPPPSG (bridge 16-20) [Triple agonist of SEQ ID NO: 37] here?
A: 6.21%

Q: H[Aib]QGTFTSDYSKYLDGQHAQCFVAWLLAGGGPSSGAPPPS [Triple agonist of SEQ ID NO: 39] was tested. Which “In vitro activity … (%) vs Glucagon” value did it give?
A: 0.53%

Q: H[Aib]QGTFTSDYSKYLCEKRQKEFVQWLLNGGPSSGAPPPSG (bridge 16-20) [Triple agonist of SEQ ID NO: 36] was tested. Which “In vitro activity … (%) vs Glucagon” value did it give?
A: 0.39%

Q: How did the “In vitro activity … (%) vs Glucagon” value turn out when H[Aib]QGTFTSDVSSYLDGQAAKEFIAWLVKGC [Triple agonist of SEQ ID NO: 1] was run?
A: < 0.1%

Q: Which “In vitro activity … (%) vs Glucagon” value does the source give for H[Aib]QGTFTSDYSKYLDEKRQKEFVNWLLAQKC (bridge 16-20) [Triple agonist of SEQ ID NO: 34] here?
A: 0.92%

Q: Which “In vitro activity … (%) vs Glucagon” value does the source give for HGQGTFTSDCSKQLDGQAAQEFVAWLLAGGPSSGAPPPS [Triple agonist of SEQ ID NO: 44] here?
A: < 0.1%

Q: Which “In vitro activity … (%) vs Glucagon” value does the source give for Y[Aib]QGTFTSDYSKYLDEKRAKEFVQWLLDHHPSSGQPPPSC (bridge 16-20) [Triple agonist of SEQ ID NO: 42] here?
A: 206%

What follows are binders tested against human GLP-1 receptor (human, UniProt P43220 24-463) (assay: cell-based or functional assay).

Q: Which “In vitro activity compared to native peptide (%) vs GLP-1” value (shortened to “In vitro activity … (%) vs GLP-1”) does the source give for H[Aib]QGTFTSDYSIAMDEIHQKDFVNWLLNTKC (bridge 16-20) [Triple agonist of SEQ ID NO: 35] here?
A: 7.5%

Q: For Y[Aib]QGTFTSDYSKYLDEKRAKEFVQWLLDHHCSSGQPPPS (bridge 16-20) [Triple agonist of SEQ ID NO: 43], which “In vitro activity … (%) vs GLP-1” value is on record?
A: 12.6%

Q: Which “In vitro activity … (%) vs GLP-1” value does the source give for H[Aib]QGTFTSDKSKYLDECAAQDFVQWLLDGGPSSGAPPPS [Triple agonist of SEQ ID NO: 41] here?
A: 34.3%

Q: With H[Aib]QGTFTSDKSKYLDERACQDFVQWLLDGGPSSGAPPPS [Triple agonist of SEQ ID NO: 40] as the binder, how does the “In vitro activity … (%) vs GLP-1” value read?
A: 75.2%

Q: Which “In vitro activity … (%) vs GLP-1” value does the source give for {Acetyl(2-(4-imidazolyl))}-[Aib]QGTFTSDKSSYLDERAAQDFVQWLLDGGPSSGAPPPSS [Triple agonist of SEQ ID NO: 38] here?
A: 2.3%

Q: H[Aib]QGTFTSDVSSYLLGQQQKEFIAWLVKGC [Triple agonist of SEQ ID NO: 4] was tested. Which “In vitro activity … (%) vs GLP-1” value did it give?
A: 8.5%

Q: H[Aib]QGTFTSDYSKYLDECRQKEFVQWLLNGGPSSGAPPPSG (bridge 16-20) [Triple agonist of SEQ ID NO: 37] was tested. Which “In vitro activity … (%) vs GLP-1” value did it give?
A: 236%

Q: Which “In vitro activity … (%) vs GLP-1” value does the source give for H[Aib]QGTFTSDYSKYLDGQHAQCFVAWLLAGGGPSSGAPPPS [Triple agonist of SEQ ID NO: 39] here?
A: 13.9%

Q: With H[Aib]QGTFTSDYSKYLCEKRQKEFVQWLLNGGPSSGAPPPSG (bridge 16-20) [Triple agonist of SEQ ID NO: 36] as the binder, how does the “In vitro activity … (%) vs GLP-1” value read?
A: 37.4%

Q: H[Aib]QGTFTSDVSSYLDGQAAKEFIAWLVKGC [Triple agonist of SEQ ID NO: 1] was tested. Which “In vitro activity … (%) vs GLP-1” value did it give?
A: 3.2%

Q: Which “In vitro activity … (%) vs GLP-1” value does the source give for H[Aib]QGTFTSDYSKYLDEKRQKEFVNWLLAQKC (bridge 16-20) [Triple agonist of SEQ ID NO: 34] here?
A: 19.1%

Q: HGQGTFTSDCSKQLDGQAAQEFVAWLLAGGPSSGAPPPS [Triple agonist of SEQ ID NO: 44] was tested. Which “In vitro activity … (%) vs GLP-1” value did it give?
A: 1.3%

Q: For Y[Aib]QGTFTSDYSKYLDEKRAKEFVQWLLDHHPSSGQPPPSC (bridge 16-20) [Triple agonist of SEQ ID NO: 42], which “In vitro activity … (%) vs GLP-1” value is on record?
A: 33.9%
